± gives the uncertainty stated by the source.
Test: self-splicing fitness, log relative to wild type (ln ratio); higher = more splicing; Tetrahymena group I intron in knt gene, E. coli kanamycin selection, DiMSum; sequences stand for … in CUCUCU…GGAGGGAAAAGUUAUCAGGCAUGCACCUGGUAGCUAGUCUUUAAACCAAUAGAUUGCAUCGGUUUAAAAGGCAAGACCGUCAAAUUGCGGGAAAGGGGUCAACAGCCGUUCAGUACCAAGUCUCAGGGGAAACUUUGAGAUGGCCUUGCAAAGGGUAUGGUAAUAAGCUGACGGACAUGGUCCUAACCACGCAGCCAAGUCCUAAGUCAACAGAUCUUCUGUUGAUAUGGAUGCAGUUCACAGACUAAAUGUCGGUCGGGGAAGAUGUAUUCUUCUCAUAAGAUAUAGUCGGACCUCUCCUUAAUGGGAGCUAGCGGAUGAAGUGAUGCAACACUGGAGCCGCUGGGAACUAAUUUGUAUGCGAAAGUAUAUUGAUUAGUUUUGGAGUACUCGUGGUCG
Summary of the method: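 Library with all eight P1ex-region intron nucleotides randomised, intron inside the knt kanamycin-resistance gene on pET-22b(+), in E. coli BL21(DE3). Cells grew overnight at 37°C or 30°C on LB agar with or without 25 μg/mL kanamycin (plus 100 μg/mL carbenicillin, 50 μM IPTG, 0.2% rhamnose), in six replicate transformations. Pooled colonies were amplicon-sequenced on Illumina HiSeq 2500. DiMSum fitness is the error-weighted combination of wild-type-normalised replicate fold changes, kanamycin versus none.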

| Sequence | self-splicing fitness (ln) (30 °C) | self-splicing fitness (ln) (37 °C) |
| --- | --- | --- |
| UGUUAGCAAUAUUACGUUCA | 0.071 ± 0.12 | -0.114 ± 0.14 |
| UGACAGCAAUAUUACGACUA | -0.585 ± 0.087 | 0.416 ± 0.1 |
| CGGUAGCAAUAUUACGUCCA | 0.282 ± 0.15 | 0.197 ± 0.23 |
| GUCUAGCAAUAUUACGUCUU | -0.274 ± 0.09 | 1.25 ± 0.099 |
| ACUGAGCAAUAUUACGCUAC | -3.24 ± 0.24 |  |
| GGCAAGCAAUAUUACGGCAC | -0.671 ± 0.071 | 0.369 ± 0.12 |
| GUUCAGCAAUAUUACGAGUU | -1.43 ± 0.088 | -0.77 ± 0.086 |
| CGACAGCAAUAUUACGGUGU | -3.48 ± 0.14 | -2.77 ± 0.16 |
| ACUUAGCAAUAUUACGGAGC | -3.46 ± 0.3 | -0.469 ± 0.18 |
| UGAGAGCAAUAUUACGUUAG | -3.68 ± 0.37 | -3.31 ± 0.4 |
| CUGAAGCAAUAUUACGCCCA | -2.13 ± 0.34 |  |
| UGACAGCAAUAUUACGCGUU | -3.69 ± 0.16 | -2.75 ± 0.17 |
| UGUUAGCAAUAUUACGGUCU | -1.33 ± 0.09 | -0.963 ± 0.1 |
| UGUUAGCAAUAUUACGAGUU | -3.66 ± 0.28 | -1.85 ± 0.19 |
| GAAUAGCAAUAUUACGUAUA | -2.32 ± 0.15 | -1.54 ± 0.15 |
| GCAGAGCAAUAUUACGCACC | -2.11 ± 0.45 | -1.17 ± 0.48 |
| CCAUAGCAAUAUUACGUAAG | -0.421 ± 0.055 | -0.575 ± 0.07 |
| CCAGAGCAAUAUUACGGUUC | -4.36 ± 0.21 | -2.38 ± 0.18 |
| GCAAAGCAAUAUUACGCCAG | -2.38 ± 0.15 | -3.19 ± 0.29 |
| CUGAAGCAAUAUUACGCGAA | -3.12 ± 0.32 | -0.319 ± 0.18 |
| AUUCAGCAAUAUUACGCACC | -0.502 ± 0.1 | 0.457 ± 0.12 |
| UUAGAGCAAUAUUACGUAAU | -2.77 ± 0.31 | -1.69 ± 0.36 |

| Sequence | self-splicing fitness (ln) (30 °C) | self-splicing fitness (ln) (37 °C) |
| --- | --- | --- |
| AGGAAGCAAUAUUACGAUCU | -0.809 ± 0.085 | -0.905 ± 0.11 |
| GCAAAGCAAUAUUACGGCGA | -0.683 ± 0.067 | -0.115 ± 0.084 |
| UAUGAGCAAUAUUACGUUGA | -2.96 ± 0.26 | -1.25 ± 0.17 |
| CGGCAGCAAUAUUACGGGAC |  | -2.85 ± 0.47 |
| GGAAAGCAAUAUUACGCUUA | -0.976 ± 0.17 | -0.998 ± 0.19 |
| GUUCAGCAAUAUUACGUCAA | -1.86 ± 0.14 | -0.976 ± 0.14 |
| GAAGAGCAAUAUUACGUGGA | -2.05 ± 0.18 | -2.54 ± 0.26 |
| UUAUAGCAAUAUUACGCCAU | -3.93 ± 0.31 | -3.15 ± 0.28 |
| CCCAAGCAAUAUUACGUCAC | -3.87 ± 0.2 | -2.82 ± 0.15 |
| AGCGAGCAAUAUUACGGUAA | -2.45 ± 0.27 | -2.49 ± 0.24 |
| GAGCAGCAAUAUUACGAGGA | -2.48 ± 0.17 | -2.89 ± 0.22 |
| UGCGAGCAAUAUUACGUGCG | -2.56 ± 0.27 | -0.202 ± 0.3 |
| GAUCAGCAAUAUUACGAGCC | -0.966 ± 0.074 | -1.1 ± 0.093 |
| ACAAAGCAAUAUUACGCCAG | -1.94 ± 0.13 | -1.11 ± 0.16 |
| AGACAGCAAUAUUACGCUCC | -3.32 ± 0.48 | -1.64 ± 0.19 |
| UUAGAGCAAUAUUACGCGGU | -2.71 ± 0.25 | -2.81 ± 0.48 |
| GGUCAGCAAUAUUACGCGCA | -0.219 ± 0.13 | -0.27 ± 0.12 |
| ACUGAGCAAUAUUACGCUGC |  | -1.98 ± 0.33 |
| GACGAGCAAUAUUACGGCUG | -1.82 ± 0.13 | -1.13 ± 0.13 |
| GCUCAGCAAUAUUACGAAUA | -1.02 ± 0.066 | -0.439 ± 0.072 |
| CGAAAGCAAUAUUACGGACG | -2.73 ± 0.21 | -2.25 ± 0.22 |

Reference: the supplement of paper PMC7877785
